Reference: publication PMC10516627 (Nucleic Acids Research, 2023)

Biological target: GST-RNF168 (human, UniProt Q8IYW5 1-571)
Test: pull-down

GST-RNF168, sequence (Q8IYW5 whole entry): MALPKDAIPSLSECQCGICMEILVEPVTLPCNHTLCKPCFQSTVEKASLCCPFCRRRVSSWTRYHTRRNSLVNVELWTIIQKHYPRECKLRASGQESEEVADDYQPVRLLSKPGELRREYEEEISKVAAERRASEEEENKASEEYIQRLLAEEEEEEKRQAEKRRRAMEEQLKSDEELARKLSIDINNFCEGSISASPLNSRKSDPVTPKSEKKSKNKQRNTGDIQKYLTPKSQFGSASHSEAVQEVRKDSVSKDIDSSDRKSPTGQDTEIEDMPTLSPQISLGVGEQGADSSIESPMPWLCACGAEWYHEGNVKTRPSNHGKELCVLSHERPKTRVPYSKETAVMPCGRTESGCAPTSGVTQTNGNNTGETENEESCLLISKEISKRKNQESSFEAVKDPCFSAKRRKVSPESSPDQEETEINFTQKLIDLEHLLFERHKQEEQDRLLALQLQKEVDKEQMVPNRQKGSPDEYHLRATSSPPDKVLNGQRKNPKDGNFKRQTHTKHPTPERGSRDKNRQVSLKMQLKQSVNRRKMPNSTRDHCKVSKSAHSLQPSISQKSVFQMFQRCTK

Row | binding result | Binder
1 | binds | His-HDAC6 DAC2 domain (441-835 aa) (domain or fragment, human, UniProt Q9UBN7 441-835, looked up) STETVERDNMEEDNVEESEEEGPWEPPVLPILTWPVLQSRTGLVYDQNMMNHCNLWDSHHPEVPQRILRIMCRLEELGLAGRCLTLTPRPATEAELLTCHSAEYVGHLRATEKMKTRELHRESSNFDSIYICPSTFACAQLATGAACRLVEAVLSGEVLNGAAVVRPPGHHAEQDAACGFCFFNSVAVAARHAQTISGHALRILIVDWDVHHGNGTQHMFEDDPSVLYVSLHRYDHGTFFPMGDEGASSQIGRAAGTGFTVNVAWNGPRMGDADYLAAWHRLVLPIAYEFNPELVLVSAGFDAARGDPLGGCQVSPEGYAHLTHLLMGLASGRIILILEGGYNLTSISESMAACTRSLLGDPPPLLTLPRPPLSGALASITETIQVHRRYWRSLR
2 | binds | His-HDAC6 DAC1 domain (1-440 aa) (domain or fragment, human, UniProt Q9UBN7 1-440, looked up) MTSTGQDSTTTRQRRSRQNPQSPPQDSSVTSKRNIKKGAVPRSIPNLAEVKKKGKMKKLGQAMEEDLIVGLQGMDLNLEAEALAGTGLVLDEQLNEFHCLWDDSFPEGPERLHAIKEQLIQEGLLDRCVSFQARFAEKEELMLVHSLEYIDLMETTQYMNEGELRVLADTYDSVYLHPNSYSCACLASGSVLRLVDAVLGAEIRNGMAIIRPPGHHAQHSLMDGYCMFNHVAVAARYAQQKHRIRRVLIVDWDVHHGQGTQFTFDQDPSVLYFSIHRYEQGRFWPHLKASNWSTTGFGQGQGYTINVPWNQVGMRDADYIAAFLHVLLPVALEFQPQLVLVAAGFDALQGDPKGEMAATPAGFAQLTHLLMGLAGGKLILSLEGGYNLRALAEGVSASLHTLLGDPCPMLESPGAPCRSAQASVSCALEALEPFWEVLVR
